Sequences and labels used below:
B1: human IgG1 antibody specific for protein 4, S239D/S298A + T256D/T307Q, +Kif (antibody)
chain: ASTKGPSVFPLAPSSKSTSGGTAALGCLVKDYFPEPVTVSWNSGALTSGVHTFPAVLQSSGLYSLSSVVTVPSSSLGTQTYICNVNHKPSNTKVDKKVEPKSCDKTHTCPPCPAPELLGGPDVFLFPPKPKDTLMISRDPEVTCVVVDVSHEDPEVKFNWYVDGVEVHNAKTKPREEQYNATYRVVSVLQVLHQDWLNGKEYKCKVSNKALPAPIEKTISKAKGQPREPQVYTLPPSRDELTKNQVSLTCLVKGFYPSDIAVEWESNGQPENNYKTTPPVLDSDGSFFLYSKLTVDKSRWQQGNVFSCSVMHEALHNHYTQKSLSLSPGK
B2: human IgG1 antibody specific for protein 4, S239D + T256D/T307Q + R292C/V302C, +Kif (antibody)
chain: ASTKGPSVFPLAPSSKSTSGGTAALGCLVKDYFPEPVTVSWNSGALTSGVHTFPAVLQSSGLYSLSSVVTVPSSSLGTQTYICNVNHKPSNTKVDKKVEPKSCDKTHTCPPCPAPELLGGPDVFLFPPKPKDTLMISRDPEVTCVVVDVSHEDPEVKFNWYVDGVEVHNAKTKPCEEQYNSTYRCVSVLQVLHQDWLNGKEYKCKVSNKALPAPIEKTISKAKGQPREPQVYTLPPSRDELTKNQVSLTCLVKGFYPSDIAVEWESNGQPENNYKTTPPVLDSDGSFFLYSKLTVDKSRWQQGNVFSCSVMHEALHNHYTQKSLSLSPGK
B3: human IgG1 antibody specific for protein 4, S239D/I332E + R292C/V302C, +Kif (antibody)
chain: ASTKGPSVFPLAPSSKSTSGGTAALGCLVKDYFPEPVTVSWNSGALTSGVHTFPAVLQSSGLYSLSSVVTVPSSSLGTQTYICNVNHKPSNTKVDKKVEPKSCDKTHTCPPCPAPELLGGPDVFLFPPKPKDTLMISRTPEVTCVVVDVSHEDPEVKFNWYVDGVEVHNAKTKPCEEQYNSTYRCVSVLTVLHQDWLNGKEYKCKVSNKALPAPEEKTISKAKGQPREPQVYTLPPSRDELTKNQVSLTCLVKGFYPSDIAVEWESNGQPENNYKTTPPVLDSDGSFFLYSKLTVDKSRWQQGNVFSCSVMHEALHNHYTQKSLSLSPGK
B4: human IgG1 antibody specific for protein 4, S239D/S298A + T256D/T307Q + R292C/V302C, +Kif (antibody)
chain: ASTKGPSVFPLAPSSKSTSGGTAALGCLVKDYFPEPVTVSWNSGALTSGVHTFPAVLQSSGLYSLSSVVTVPSSSLGTQTYICNVNHKPSNTKVDKKVEPKSCDKTHTCPPCPAPELLGGPDVFLFPPKPKDTLMISRDPEVTCVVVDVSHEDPEVKFNWYVDGVEVHNAKTKPCEEQYNATYRCVSVLQVLHQDWLNGKEYKCKVSNKALPAPIEKTISKAKGQPREPQVYTLPPSRDELTKNQVSLTCLVKGFYPSDIAVEWESNGQPENNYKTTPPVLDSDGSFFLYSKLTVDKSRWQQGNVFSCSVMHEALHNHYTQKSLSLSPGK
B5: human IgG1 antibody specific for protein 4, S239D + R292C/V302C, +Kif (antibody)
chain: ASTKGPSVFPLAPSSKSTSGGTAALGCLVKDYFPEPVTVSWNSGALTSGVHTFPAVLQSSGLYSLSSVVTVPSSSLGTQTYICNVNHKPSNTKVDKKVEPKSCDKTHTCPPCPAPELLGGPDVFLFPPKPKDTLMISRTPEVTCVVVDVSHEDPEVKFNWYVDGVEVHNAKTKPCEEQYNSTYRCVSVLTVLHQDWLNGKEYKCKVSNKALPAPIEKTISKAKGQPREPQVYTLPPSRDELTKNQVSLTCLVKGFYPSDIAVEWESNGQPENNYKTTPPVLDSDGSFFLYSKLTVDKSRWQQGNVFSCSVMHEALHNHYTQKSLSLSPGK
B6: human IgG1 antibody specific for protein 4, S239D + T256D/T307Q, +Kif (antibody)
chain: ASTKGPSVFPLAPSSKSTSGGTAALGCLVKDYFPEPVTVSWNSGALTSGVHTFPAVLQSSGLYSLSSVVTVPSSSLGTQTYICNVNHKPSNTKVDKKVEPKSCDKTHTCPPCPAPELLGGPDVFLFPPKPKDTLMISRDPEVTCVVVDVSHEDPEVKFNWYVDGVEVHNAKTKPREEQYNSTYRVVSVLQVLHQDWLNGKEYKCKVSNKALPAPIEKTISKAKGQPREPQVYTLPPSRDELTKNQVSLTCLVKGFYPSDIAVEWESNGQPENNYKTTPPVLDSDGSFFLYSKLTVDKSRWQQGNVFSCSVMHEALHNHYTQKSLSLSPGK
B7: human IgG1 antibody specific for protein 4, T256D/T307Q + R292C/V302C, +Kif (antibody)
chain: ASTKGPSVFPLAPSSKSTSGGTAALGCLVKDYFPEPVTVSWNSGALTSGVHTFPAVLQSSGLYSLSSVVTVPSSSLGTQTYICNVNHKPSNTKVDKKVEPKSCDKTHTCPPCPAPELLGGPSVFLFPPKPKDTLMISRDPEVTCVVVDVSHEDPEVKFNWYVDGVEVHNAKTKPCEEQYNSTYRCVSVLQVLHQDWLNGKEYKCKVSNKALPAPIEKTISKAKGQPREPQVYTLPPSRDELTKNQVSLTCLVKGFYPSDIAVEWESNGQPENNYKTTPPVLDSDGSFFLYSKLTVDKSRWQQGNVFSCSVMHEALHNHYTQKSLSLSPGK
B8: human IgG1 antibody specific for protein 4, S239D/I332E + T256D/T307Q, +Kif (antibody)
chain: ASTKGPSVFPLAPSSKSTSGGTAALGCLVKDYFPEPVTVSWNSGALTSGVHTFPAVLQSSGLYSLSSVVTVPSSSLGTQTYICNVNHKPSNTKVDKKVEPKSCDKTHTCPPCPAPELLGGPDVFLFPPKPKDTLMISRDPEVTCVVVDVSHEDPEVKFNWYVDGVEVHNAKTKPREEQYNSTYRVVSVLQVLHQDWLNGKEYKCKVSNKALPAPEEKTISKAKGQPREPQVYTLPPSRDELTKNQVSLTCLVKGFYPSDIAVEWESNGQPENNYKTTPPVLDSDGSFFLYSKLTVDKSRWQQGNVFSCSVMHEALHNHYTQKSLSLSPGK
B9: human IgG1 antibody specific for protein 4, S239D/S298A + R292C/V302C, +Kif (antibody)
chain: ASTKGPSVFPLAPSSKSTSGGTAALGCLVKDYFPEPVTVSWNSGALTSGVHTFPAVLQSSGLYSLSSVVTVPSSSLGTQTYICNVNHKPSNTKVDKKVEPKSCDKTHTCPPCPAPELLGGPDVFLFPPKPKDTLMISRTPEVTCVVVDVSHEDPEVKFNWYVDGVEVHNAKTKPCEEQYNATYRCVSVLTVLHQDWLNGKEYKCKVSNKALPAPIEKTISKAKGQPREPQVYTLPPSRDELTKNQVSLTCLVKGFYPSDIAVEWESNGQPENNYKTTPPVLDSDGSFFLYSKLTVDKSRWQQGNVFSCSVMHEALHNHYTQKSLSLSPGK
B10: human IgG1 antibody specific for protein 4, S239D/I332E + T256D/T307Q + R292C/V302C, +Kif (antibody)
chain: ASTKGPSVFPLAPSSKSTSGGTAALGCLVKDYFPEPVTVSWNSGALTSGVHTFPAVLQSSGLYSLSSVVTVPSSSLGTQTYICNVNHKPSNTKVDKKVEPKSCDKTHTCPPCPAPELLGGPDVFLFPPKPKDTLMISRDPEVTCVVVDVSHEDPEVKFNWYVDGVEVHNAKTKPCEEQYNSTYRCVSVLQVLHQDWLNGKEYKCKVSNKALPAPEEKTISKAKGQPREPQVYTLPPSRDELTKNQVSLTCLVKGFYPSDIAVEWESNGQPENNYKTTPPVLDSDGSFFLYSKLTVDKSRWQQGNVFSCSVMHEALHNHYTQKSLSLSPGK
B11: human IgG1 antibody specific for protein 4, S239D/S298A + R292C/V302C, -Kif (antibody)
chain: ASTKGPSVFPLAPSSKSTSGGTAALGCLVKDYFPEPVTVSWNSGALTSGVHTFPAVLQSSGLYSLSSVVTVPSSSLGTQTYICNVNHKPSNTKVDKKVEPKSCDKTHTCPPCPAPELLGGPDVFLFPPKPKDTLMISRTPEVTCVVVDVSHEDPEVKFNWYVDGVEVHNAKTKPCEEQYNATYRCVSVLTVLHQDWLNGKEYKCKVSNKALPAPIEKTISKAKGQPREPQVYTLPPSRDELTKNQVSLTCLVKGFYPSDIAVEWESNGQPENNYKTTPPVLDSDGSFFLYSKLTVDKSRWQQGNVFSCSVMHEALHNHYTQKSLSLSPGK
B12: human IgG1 antibody specific for protein 4, S239D + T256D/T307Q, -Kif (antibody)
chain: ASTKGPSVFPLAPSSKSTSGGTAALGCLVKDYFPEPVTVSWNSGALTSGVHTFPAVLQSSGLYSLSSVVTVPSSSLGTQTYICNVNHKPSNTKVDKKVEPKSCDKTHTCPPCPAPELLGGPDVFLFPPKPKDTLMISRDPEVTCVVVDVSHEDPEVKFNWYVDGVEVHNAKTKPREEQYNSTYRVVSVLQVLHQDWLNGKEYKCKVSNKALPAPIEKTISKAKGQPREPQVYTLPPSRDELTKNQVSLTCLVKGFYPSDIAVEWESNGQPENNYKTTPPVLDSDGSFFLYSKLTVDKSRWQQGNVFSCSVMHEALHNHYTQKSLSLSPGK
B13: human IgG1 antibody specific for protein 4, S239D/I332E + T256D/T307Q + R292C/V302C, -Kif (antibody)
chain: ASTKGPSVFPLAPSSKSTSGGTAALGCLVKDYFPEPVTVSWNSGALTSGVHTFPAVLQSSGLYSLSSVVTVPSSSLGTQTYICNVNHKPSNTKVDKKVEPKSCDKTHTCPPCPAPELLGGPDVFLFPPKPKDTLMISRDPEVTCVVVDVSHEDPEVKFNWYVDGVEVHNAKTKPCEEQYNSTYRCVSVLQVLHQDWLNGKEYKCKVSNKALPAPEEKTISKAKGQPREPQVYTLPPSRDELTKNQVSLTCLVKGFYPSDIAVEWESNGQPENNYKTTPPVLDSDGSFFLYSKLTVDKSRWQQGNVFSCSVMHEALHNHYTQKSLSLSPGK
B14: human IgG1 antibody specific for protein 4, S239D + R292C/V302C, -Kif (antibody)
chain: ASTKGPSVFPLAPSSKSTSGGTAALGCLVKDYFPEPVTVSWNSGALTSGVHTFPAVLQSSGLYSLSSVVTVPSSSLGTQTYICNVNHKPSNTKVDKKVEPKSCDKTHTCPPCPAPELLGGPDVFLFPPKPKDTLMISRTPEVTCVVVDVSHEDPEVKFNWYVDGVEVHNAKTKPCEEQYNSTYRCVSVLTVLHQDWLNGKEYKCKVSNKALPAPIEKTISKAKGQPREPQVYTLPPSRDELTKNQVSLTCLVKGFYPSDIAVEWESNGQPENNYKTTPPVLDSDGSFFLYSKLTVDKSRWQQGNVFSCSVMHEALHNHYTQKSLSLSPGK
B15: human IgG1 antibody specific for protein 4, S239D/I332E + R292C/V302C, -Kif (antibody)
chain: ASTKGPSVFPLAPSSKSTSGGTAALGCLVKDYFPEPVTVSWNSGALTSGVHTFPAVLQSSGLYSLSSVVTVPSSSLGTQTYICNVNHKPSNTKVDKKVEPKSCDKTHTCPPCPAPELLGGPDVFLFPPKPKDTLMISRTPEVTCVVVDVSHEDPEVKFNWYVDGVEVHNAKTKPCEEQYNSTYRCVSVLTVLHQDWLNGKEYKCKVSNKALPAPEEKTISKAKGQPREPQVYTLPPSRDELTKNQVSLTCLVKGFYPSDIAVEWESNGQPENNYKTTPPVLDSDGSFFLYSKLTVDKSRWQQGNVFSCSVMHEALHNHYTQKSLSLSPGK
B16: human IgG1 antibody specific for protein 4, S239D/S298A + T256D/T307Q, -Kif (antibody)
chain: ASTKGPSVFPLAPSSKSTSGGTAALGCLVKDYFPEPVTVSWNSGALTSGVHTFPAVLQSSGLYSLSSVVTVPSSSLGTQTYICNVNHKPSNTKVDKKVEPKSCDKTHTCPPCPAPELLGGPDVFLFPPKPKDTLMISRDPEVTCVVVDVSHEDPEVKFNWYVDGVEVHNAKTKPREEQYNATYRVVSVLQVLHQDWLNGKEYKCKVSNKALPAPIEKTISKAKGQPREPQVYTLPPSRDELTKNQVSLTCLVKGFYPSDIAVEWESNGQPENNYKTTPPVLDSDGSFFLYSKLTVDKSRWQQGNVFSCSVMHEALHNHYTQKSLSLSPGK

The target of one test is T1, Recombinant human FcγRIIIa-V158 (human, UniProt P08637 17-208). As to the kind of experiment: SPR; +kif.
T1 sequence (P08637 17-208 F176V): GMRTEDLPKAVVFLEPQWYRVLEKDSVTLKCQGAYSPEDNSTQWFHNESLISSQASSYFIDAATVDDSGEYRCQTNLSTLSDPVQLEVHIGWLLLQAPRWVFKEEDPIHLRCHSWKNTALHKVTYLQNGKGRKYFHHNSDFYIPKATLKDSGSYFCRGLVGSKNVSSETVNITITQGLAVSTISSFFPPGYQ
In general, Kd refers to the constant that tells how readily two partners part at equilibrium. For the molecule B1, the Kd worked out at 14 nM.

B2: the Kd stood at 13.1 nM. Still for that read-out and setting: under B3 stands 5.46 nM; under B4, 12.8 nM; under B5, 8.97 nM.

Turning to B6, the Kd was found to be 19.7 nM. For B7, the Kd was found to be 153 nM. Consider B8, for which the Kd turned out to be 7.59 nM. Regarding B9, the Kd came out at 8.76 nM. The same measure, in the same setting: under B10 stands 5.24 nM.

Another test concerns the target T1, Recombinant human FcγRIIIa-V158. As to the kind of experiment: SPR; -kif. Background: SPR reads the build-up and loss of mass on a sensor chip optically.
As for B11, the equilibrium dissociation constant (Kd) came out at 41.8 nM. On the same count and under the same terms, for B12 the value was 60.4 nM; for B13, 15.1 nM; for B14, 68.6 nM. For the molecule B15, the Kd amounted to 11.1 nM. For the molecule B16, the Kd came out at 30.7 nM.

These data come from patent US20240166750A1 (published 2024).
